Measured values reported in article PMC2528843.

Key:
[1] = flow cytometry, mean YFP fluorescence, stable HepG2; settings: glycan lost
[2] = confocal imaging, apical targeting, polarized MDCK cells; settings: glycan lost; control: wild-type hSVCT1-YFP
[3] = confocal imaging, transiently transfected HepG2; settings: glycan lost; control: untreated
[4] = confocal imaging, cell surface targeting, stable HepG2; settings: glycan lost; control: wild-type hSVCT1-YFP
[5] = [14C]-ascorbic acid uptake, stable HepG2 cells; settings: glycan lost; control: wild-type hSVCT1-YFP

Substance	expression_or_secretion ([1]; control: wild-type hSVCT1-YFP)	localisation_or_trafficking [2]	expression_or_secretion ([1]; control: wild-type hSVCT2-YFP)	further results
hSVCT1: N138/N144Q	decreases			
hSVCT1: N138Q/N144Q		decreases		
hSVCT2: tunicamycin				expression_or_secretion ([1]; control: untreated): decreases; localisation_or_trafficking [3]: no change
hSVCT2: N188/N196Q			decreases	
hSVCT1: N138Q	decreases	decreases		localisation_or_trafficking [4]: decreases
hSVCT1: N144Q	no change	no change		other: transport activity [5]: decreases; localisation_or_trafficking [4]: no change
hSVCT2: N196Q			decreases	
hSVCT1: tunicamycin				expression_or_secretion ([1]; control: untreated): decreases; localisation_or_trafficking [3]: decreases
hSVCT2: N188Q			decreases	
